Results published in US20160200782A1.

Key:
Test in all cases: cell-based or functional assay
ACK1(h) (human) = ACK1(h) (human) (UniProt Q07912)
ALK4(h) (human) = ALK4(h) (human) (UniProt P36896)
ARK5(h) (human) = ARK5(h) (human) (UniProt O60285)
Ab1(M351T)(h) (human) = Ab1(M351T)(h) (human) (UniProt P00519)
Ax1(h) (human) = Ax1(h) (human) (UniProt P30530)
BRK(h) (human) = BRK(h) (human) (UniProt Q13882)
CDK2/cyclinA(h) (human) = CDK2/cyclinA(h) (human) (UniProt P24941)
CDK2/cyclinE(h) (human) = CDK2/cyclinE(h) (human) (UniProt P24941)
CDK5/p35(h) (human) = CDK5/p35(h) (human) (UniProt Q00535)
[1] = biological target: CDK9/cyclin T1(h) (human) (UniProt P50750)
CDK9/cyclin T1(h) (human), sequence (P50750 whole entry, chain 1 of 2): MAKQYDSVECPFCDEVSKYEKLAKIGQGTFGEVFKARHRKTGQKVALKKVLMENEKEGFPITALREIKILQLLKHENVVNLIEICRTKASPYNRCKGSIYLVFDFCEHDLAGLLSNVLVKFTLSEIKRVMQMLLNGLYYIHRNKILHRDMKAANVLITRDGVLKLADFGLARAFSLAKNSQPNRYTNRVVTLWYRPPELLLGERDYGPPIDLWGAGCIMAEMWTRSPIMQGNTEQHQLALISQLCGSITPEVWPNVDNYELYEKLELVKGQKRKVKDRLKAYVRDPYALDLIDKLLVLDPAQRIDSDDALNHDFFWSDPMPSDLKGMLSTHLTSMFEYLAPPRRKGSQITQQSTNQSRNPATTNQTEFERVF
CDK9/cyclin T1(h) (human), sequence (O60563 whole entry, chain 2 of 2, further chain): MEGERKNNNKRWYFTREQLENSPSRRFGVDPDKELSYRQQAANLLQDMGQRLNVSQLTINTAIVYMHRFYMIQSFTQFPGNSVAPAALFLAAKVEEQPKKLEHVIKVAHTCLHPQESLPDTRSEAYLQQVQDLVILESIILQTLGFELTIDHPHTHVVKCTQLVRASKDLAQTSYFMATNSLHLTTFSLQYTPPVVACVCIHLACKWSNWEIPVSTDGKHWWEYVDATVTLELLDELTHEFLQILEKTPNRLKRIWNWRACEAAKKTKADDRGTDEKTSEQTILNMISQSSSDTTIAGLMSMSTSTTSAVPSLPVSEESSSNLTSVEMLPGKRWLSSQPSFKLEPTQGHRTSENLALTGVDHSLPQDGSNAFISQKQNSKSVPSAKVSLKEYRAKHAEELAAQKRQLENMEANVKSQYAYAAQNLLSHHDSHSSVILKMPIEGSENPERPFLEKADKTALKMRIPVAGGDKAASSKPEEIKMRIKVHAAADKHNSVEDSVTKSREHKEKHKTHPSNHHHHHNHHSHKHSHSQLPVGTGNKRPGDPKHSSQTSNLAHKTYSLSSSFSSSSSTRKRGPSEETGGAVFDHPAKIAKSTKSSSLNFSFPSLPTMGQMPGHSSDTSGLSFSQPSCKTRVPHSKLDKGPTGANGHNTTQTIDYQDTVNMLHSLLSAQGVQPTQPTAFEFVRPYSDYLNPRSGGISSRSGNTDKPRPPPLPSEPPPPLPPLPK

CLK3(h) (human) = CLK3(h) (human) (UniProt P49761)
CaMKIIγ(h) (human) = CaMKIIγ(h) (human) (UniProt Q13555)
CaMKIV(h) (human) = CaMKIV(h) (human) (UniProt Q16566)
CaMKIV(h) (human), sequence (Q16566 whole entry): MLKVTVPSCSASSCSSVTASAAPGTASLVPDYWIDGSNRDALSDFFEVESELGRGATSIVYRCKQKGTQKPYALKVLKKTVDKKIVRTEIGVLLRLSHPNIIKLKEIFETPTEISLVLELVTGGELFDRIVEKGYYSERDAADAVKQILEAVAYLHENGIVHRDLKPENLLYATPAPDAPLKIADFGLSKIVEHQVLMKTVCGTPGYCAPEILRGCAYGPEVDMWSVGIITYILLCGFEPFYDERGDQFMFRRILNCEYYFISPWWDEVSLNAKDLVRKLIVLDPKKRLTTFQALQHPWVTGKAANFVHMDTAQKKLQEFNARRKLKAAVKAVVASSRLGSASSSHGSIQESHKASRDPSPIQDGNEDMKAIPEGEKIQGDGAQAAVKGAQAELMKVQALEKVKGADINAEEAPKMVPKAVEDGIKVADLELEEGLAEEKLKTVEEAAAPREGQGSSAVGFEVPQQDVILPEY

DAPK1(h) (human) = DAPK1(h) (human) (UniProt P53355)
DRAK1(h) (human) = DRAK1(h) (human) (UniProt Q9UEE5)
EphA4(h) (human) = EphA4(h) (human) (UniProt P54764)
EphA7(h) (human) = EphA7(h) (human) (UniProt Q15375)
EphA7(h) (human), sequence (Q15375 577-998 limits assumed): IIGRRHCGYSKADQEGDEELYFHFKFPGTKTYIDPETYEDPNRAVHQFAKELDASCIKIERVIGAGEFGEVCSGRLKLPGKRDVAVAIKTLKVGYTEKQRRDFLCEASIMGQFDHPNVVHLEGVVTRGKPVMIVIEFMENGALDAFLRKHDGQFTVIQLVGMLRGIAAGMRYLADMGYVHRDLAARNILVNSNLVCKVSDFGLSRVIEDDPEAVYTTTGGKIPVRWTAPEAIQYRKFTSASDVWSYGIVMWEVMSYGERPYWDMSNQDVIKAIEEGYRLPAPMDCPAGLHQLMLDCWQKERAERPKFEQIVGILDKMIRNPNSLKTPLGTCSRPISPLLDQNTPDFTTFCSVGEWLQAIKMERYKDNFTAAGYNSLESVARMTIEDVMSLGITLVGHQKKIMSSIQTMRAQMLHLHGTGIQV

EphA8(h) (human) = EphA8(h) (human) (UniProt P29322)
ErbB4(h) (human) = ErbB4(h) (human) (UniProt Q15303)
FGFR1(h) (human) = FGFR1(h) (human) (UniProt P11362)
FGFR3(h) (human) = FGFR3(h) (human) (UniProt P22607)
Flt1(h) (human) = Flt1(h) (human) (UniProt P17948)
Flt3(h) (human) = Flt3(h) (human) (UniProt P36888)
HIPK1(h) (human) = HIPK1(h) (human) (UniProt Q86Z02)
HIPK2(h) (human) = HIPK2(h) (human) (UniProt Q9H2X6)
HIPK3(h) (human) = HIPK3(h) (human) (UniProt Q9H422)
Hck(h) activated (human) = Hck(h) activated (human) (UniProt P08631)
Hck(h) activated (human), sequence (P08631 251-518 limits assumed): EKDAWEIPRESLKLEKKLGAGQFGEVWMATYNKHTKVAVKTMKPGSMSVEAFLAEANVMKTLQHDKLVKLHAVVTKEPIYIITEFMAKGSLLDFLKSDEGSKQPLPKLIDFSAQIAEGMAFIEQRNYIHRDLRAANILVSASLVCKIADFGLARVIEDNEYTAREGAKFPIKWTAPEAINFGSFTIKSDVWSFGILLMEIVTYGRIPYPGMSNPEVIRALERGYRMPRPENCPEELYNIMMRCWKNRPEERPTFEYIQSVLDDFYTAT

IKKα(h) (human) = IKKα(h) (human) (UniProt O15111)
IKKβ(h) (human) = IKKβ(h) (human) (UniProt O14920)
Lck(h) (human) = Lck(h) (human) (UniProt P06239)
Lck(h) (human), sequence (P06239 whole entry): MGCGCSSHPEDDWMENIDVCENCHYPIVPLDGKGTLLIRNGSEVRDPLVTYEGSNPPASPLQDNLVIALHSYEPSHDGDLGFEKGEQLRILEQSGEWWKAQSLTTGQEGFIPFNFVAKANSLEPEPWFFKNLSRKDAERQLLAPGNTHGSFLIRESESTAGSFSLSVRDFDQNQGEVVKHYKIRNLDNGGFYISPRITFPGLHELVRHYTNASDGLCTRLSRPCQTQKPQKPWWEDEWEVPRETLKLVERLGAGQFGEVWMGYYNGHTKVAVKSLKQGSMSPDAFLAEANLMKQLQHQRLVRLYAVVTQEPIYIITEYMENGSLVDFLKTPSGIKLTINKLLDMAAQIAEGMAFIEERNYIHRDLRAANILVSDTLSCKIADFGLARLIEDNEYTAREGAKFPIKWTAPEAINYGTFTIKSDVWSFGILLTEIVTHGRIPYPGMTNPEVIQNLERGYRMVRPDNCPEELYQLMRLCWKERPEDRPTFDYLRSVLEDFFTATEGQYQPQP

MINK(h) (human) = MINK(h) (human) (UniProt Q8N4C8)
MINK(h) (human), sequence (Q8N4C8 1-320 limits assumed): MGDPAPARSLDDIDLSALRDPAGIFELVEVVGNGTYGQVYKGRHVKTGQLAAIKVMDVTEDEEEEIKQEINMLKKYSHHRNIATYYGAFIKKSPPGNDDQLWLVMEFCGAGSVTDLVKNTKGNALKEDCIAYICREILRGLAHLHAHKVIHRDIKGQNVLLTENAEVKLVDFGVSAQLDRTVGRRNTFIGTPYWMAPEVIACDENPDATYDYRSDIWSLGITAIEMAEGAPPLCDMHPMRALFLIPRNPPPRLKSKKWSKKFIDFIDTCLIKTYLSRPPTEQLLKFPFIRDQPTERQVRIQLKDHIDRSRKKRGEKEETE

MLK1(h) (human) = MLK1(h) (human) (UniProt P80192)
MST2(h) (human) = MST2(h) (human) (UniProt Q13188)
Mer(h) (human) = Mer(h) (human) (UniProt Q12866)
Met(h) (human) = Met(h) (human) (UniProt P08581)
Mnk2(h) (human) = Mnk2(h) (human) (UniProt Q9HBH9)
Mnk2(h) (human), sequence (Q9HBH9 whole entry): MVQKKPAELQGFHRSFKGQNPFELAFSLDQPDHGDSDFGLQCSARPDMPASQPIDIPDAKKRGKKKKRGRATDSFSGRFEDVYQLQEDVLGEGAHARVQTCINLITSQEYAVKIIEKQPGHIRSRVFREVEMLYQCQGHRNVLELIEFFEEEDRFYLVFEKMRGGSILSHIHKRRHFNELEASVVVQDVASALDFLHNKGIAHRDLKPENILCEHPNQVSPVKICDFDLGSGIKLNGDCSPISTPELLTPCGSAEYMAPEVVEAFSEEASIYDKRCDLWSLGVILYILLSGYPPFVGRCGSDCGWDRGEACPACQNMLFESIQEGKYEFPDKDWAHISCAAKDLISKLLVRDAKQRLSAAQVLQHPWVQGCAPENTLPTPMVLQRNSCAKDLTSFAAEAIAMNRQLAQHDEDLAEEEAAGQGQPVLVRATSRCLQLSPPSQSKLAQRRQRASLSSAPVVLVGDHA

NEK2(h) (human) = NEK2(h) (human) (UniProt P51955)
NLK(h) (human) = NLK(h) (human) (UniProt Q9UBE8)
PAK5(h) (human) = PAK5(h) (human) (UniProt Q9P286)
PAK5(h) (human), sequence (Q9P286 whole entry): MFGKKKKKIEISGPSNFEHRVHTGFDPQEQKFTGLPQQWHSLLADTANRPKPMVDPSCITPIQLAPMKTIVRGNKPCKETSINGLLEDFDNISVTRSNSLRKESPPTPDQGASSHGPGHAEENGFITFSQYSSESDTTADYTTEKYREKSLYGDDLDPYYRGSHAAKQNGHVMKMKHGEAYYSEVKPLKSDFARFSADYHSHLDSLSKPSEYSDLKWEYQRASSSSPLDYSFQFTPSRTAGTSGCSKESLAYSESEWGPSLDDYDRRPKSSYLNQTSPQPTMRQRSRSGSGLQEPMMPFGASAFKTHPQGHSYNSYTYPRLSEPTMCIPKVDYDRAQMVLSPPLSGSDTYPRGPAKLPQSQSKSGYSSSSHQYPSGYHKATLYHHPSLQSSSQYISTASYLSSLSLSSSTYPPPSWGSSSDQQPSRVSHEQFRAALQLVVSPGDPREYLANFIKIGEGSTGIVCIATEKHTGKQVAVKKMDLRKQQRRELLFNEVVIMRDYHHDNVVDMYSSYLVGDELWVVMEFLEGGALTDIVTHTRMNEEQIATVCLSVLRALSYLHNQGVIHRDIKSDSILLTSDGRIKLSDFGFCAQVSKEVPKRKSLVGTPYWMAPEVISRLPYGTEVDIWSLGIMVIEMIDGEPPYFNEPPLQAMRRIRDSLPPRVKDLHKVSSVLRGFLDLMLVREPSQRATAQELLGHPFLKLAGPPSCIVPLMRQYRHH

PAR-1Bα(h) (human) = PAR-1Bα(h) (human) (UniProt Q7KZI7)
PDGFRα(D842V)(h) (human) = PDGFRα(D842V)(h) (human) (UniProt P16234)
PDGFRα(D842V)(h) (human), sequence (P16234 550-1089 D842V limits assumed): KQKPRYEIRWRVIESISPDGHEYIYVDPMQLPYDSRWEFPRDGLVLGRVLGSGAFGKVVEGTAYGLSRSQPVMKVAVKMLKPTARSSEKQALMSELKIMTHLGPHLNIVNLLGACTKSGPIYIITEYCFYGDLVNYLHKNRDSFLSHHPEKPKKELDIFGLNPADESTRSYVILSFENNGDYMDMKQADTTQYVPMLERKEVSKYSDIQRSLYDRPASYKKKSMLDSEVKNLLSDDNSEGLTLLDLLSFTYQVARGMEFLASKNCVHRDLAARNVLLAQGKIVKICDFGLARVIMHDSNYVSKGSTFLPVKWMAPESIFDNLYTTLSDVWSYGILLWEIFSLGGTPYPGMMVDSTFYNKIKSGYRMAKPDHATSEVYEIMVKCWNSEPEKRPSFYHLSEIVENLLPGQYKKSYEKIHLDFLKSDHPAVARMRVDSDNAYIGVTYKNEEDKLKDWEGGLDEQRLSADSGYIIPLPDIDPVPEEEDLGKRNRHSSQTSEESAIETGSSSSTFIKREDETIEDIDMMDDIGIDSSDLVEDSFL

PDK1(h) (human) = PDK1(h) (human) (UniProt O15530)
PKG1β(h) (human) = PKG1β(h) (human) (UniProt Q13976)
Pim-1(h) (human) = Pim-1(h) (human) (UniProt P11309)
Ron(h) (human) = Ron(h) (human) (UniProt Q04912)
Ros(h) (human) = Ros(h) (human) (UniProt P08922)
Rsk1(h) (human) = Rsk1(h) (human) (UniProt Q15418)
Rsk4(h) (human) = Rsk4(h) (human) (UniProt Q9UK32)
STK33(h) (human) = STK33(h) (human) (UniProt Q9BYT3)
Src(1-530)(h) (human) = Src(1-530)(h) (human) (UniProt P12931)
Src(T341M)(h) (human) = Src(T341M)(h) (human) (UniProt P12931)
TAO1(h) (human) = TAO1(h) (human) (UniProt Q7L7X3)
cKit(D816H)(h) (human) = cKit(D816H)(h) (human) (UniProt P10721)
cKit(V654A)(h) (human) = cKit(V654A)(h) (human) (UniProt P10721)
cKit(h) (human) = cKit(h) (human) (UniProt P10721)
mTOR/FKBP12(h) (human) = mTOR/FKBP12(h) (human) (UniProt P42345)

MMI-0500 (peptide)
% activity (ACK1(h) (human)): 64% | % activity (ALK4(h) (human)): 81% | % activity (ARK5(h) (human)): 20% | % activity (Ab1(M351T)(h) (human)): 61% | % activity (Ax1(h) (human)): 12% | % activity (BRK(h) (human)): 41% | % activity (CDK2/cyclinA(h) (human)): 87% | % activity (CDK2/cyclinE(h) (human)): 19% | % activity (CDK5/p35(h) (human)): 59% | % activity [1]: 6% | % activity (CLK3(h) (human)): 76% | % activity (CaMKIIγ(h) (human)): 3% | % activity (CaMKIV(h) (human)): -1% | % activity (DAPK1(h) (human)): 0% | % activity (DRAK1(h) (human)): 8% | % activity (EphA4(h) (human)): 48% | % activity (EphA7(h) (human)): 189% | % activity (EphA8(h) (human)): 337% | % activity (ErbB4(h) (human)): 2% | % activity (FGFR1(h) (human)): 18% | % activity (FGFR3(h) (human)): 10% | % activity (Flt1(h) (human)): 27% | % activity (Flt3(h) (human)): 17% | % activity (HIPK1(h) (human)): 47% | % activity (HIPK2(h) (human)): 38% | % activity (HIPK3(h) (human)): 85% | % activity (Hck(h) activated (human)): 67% | % activity (IKKα(h) (human)): 50% | % activity (IKKβ(h) (human)): 71% | % activity (Lck(h) (human)): 359% | % activity (MINK(h) (human)): 5% | % activity (MLK1(h) (human)): 43% | % activity (MST2(h) (human)): 2% | % activity (Mer(h) (human)): 17% | % activity (Met(h) (human)): 27% | % activity (Mnk2(h) (human)): 6% | % activity (NEK2(h) (human)): 0% | % activity (NLK(h) (human)): 19% | % activity (PAK5(h) (human)): 125% | % activity (PAR-1Bα(h) (human)): 97% | % activity (PDGFRα(D842V)(h) (human)): 170% | % activity (PDK1(h) (human)): 178% | % activity (PKG1β(h) (human)): 24% | % activity (Pim-1(h) (human)): 0% | % activity (Ron(h) (human)): 46% | % activity (Ros(h) (human)): 150% | % activity (Rsk1(h) (human)): 34% | % activity (Rsk4(h) (human)): 29% | % activity (STK33(h) (human)): 16% | % activity (Src(1-530)(h) (human)): 21% | % activity (Src(T341M)(h) (human)): 59% | % activity (TAO1(h) (human)): 24% | % activity (cKit(D816H)(h) (human)): 194% | % activity (cKit(V654A)(h) (human)): 223% | % activity (cKit(h) (human)): 45% | % activity (mTOR/FKBP12(h) (human)): 140%

MMI-0200 (peptide)
% activity (ACK1(h) (human)): 97% | % activity (ALK4(h) (human)): 152% | % activity (ARK5(h) (human)): 93% | % activity (Ab1(M351T)(h) (human)): 119% | % activity (Ax1(h) (human)): 99% | % activity (BRK(h) (human)): 127% | % activity (CDK2/cyclinA(h) (human)): 114% | % activity (CDK2/cyclinE(h) (human)): 112% | % activity (CDK5/p35(h) (human)): 92% | % activity [1]: 103% | % activity (CLK3(h) (human)): 76% | % activity (CaMKIIγ(h) (human)): 94% | % activity (CaMKIV(h) (human)): 71% | % activity (DAPK1(h) (human)): 113% | % activity (DRAK1(h) (human)): 34% | % activity (EphA4(h) (human)): 127% | % activity (EphA7(h) (human)): 220% | % activity (EphA8(h) (human)): 133% | % activity (ErbB4(h) (human)): 82% | % activity (FGFR1(h) (human)): 97% | % activity (FGFR3(h) (human)): 208% | % activity (Flt1(h) (human)): 96% | % activity (Flt3(h) (human)): 99% | % activity (HIPK1(h) (human)): 115% | % activity (HIPK2(h) (human)): 102% | % activity (HIPK3(h) (human)): 105% | % activity (Hck(h) activated (human)): 100% | % activity (IKKα(h) (human)): 104% | % activity (IKKβ(h) (human)): 109% | % activity (Lck(h) (human)): 113% | % activity (MINK(h) (human)): 103% | % activity (MLK1(h) (human)): 84% | % activity (MST2(h) (human)): 104% | % activity (Mer(h) (human)): 90% | % activity (Met(h) (human)): 71% | % activity (Mnk2(h) (human)): 106% | % activity (NEK2(h) (human)): 97% | % activity (NLK(h) (human)): 106% | % activity (PAK5(h) (human)): 100% | % activity (PAR-1Bα(h) (human)): 110% | % activity (PDGFRα(D842V)(h) (human)): 107% | % activity (PDK1(h) (human)): 143% | % activity (PKG1β(h) (human)): 57% | % activity (Pim-1(h) (human)): 18% | % activity (Ron(h) (human)): 120% | % activity (Ros(h) (human)): 86% | % activity (Rsk1(h) (human)): 102% | % activity (Rsk4(h) (human)): 125% | % activity (STK33(h) (human)): 98% | % activity (Src(1-530)(h) (human)): 75% | % activity (Src(T341M)(h) (human)): 56% | % activity (TAO1(h) (human)): 105% | % activity (cKit(D816H)(h) (human)): 106% | % activity (cKit(V654A)(h) (human)): 113% | % activity (cKit(h) (human)): 110% | % activity (mTOR/FKBP12(h) (human)): 118%

MMI-0100 (peptide)
% activity (ACK1(h) (human)): 106% | % activity (ALK4(h) (human)): 124% | % activity (ARK5(h) (human)): 108% | % activity (Ab1(M351T)(h) (human)): 128% | % activity (Ax1(h) (human)): 81% | % activity (BRK(h) (human)): 70% | % activity (CDK2/cyclinA(h) (human)): 97% | % activity (CDK2/cyclinE(h) (human)): 106% | % activity (CDK5/p35(h) (human)): 94% | % activity [1]: 228% | % activity (CLK3(h) (human)): 108% | % activity (CaMKIIγ(h) (human)): 106% | % activity (CaMKIV(h) (human)): 87% | % activity (DAPK1(h) (human)): 97% | % activity (DRAK1(h) (human)): 47% | % activity (EphA4(h) (human)): 110% | % activity (EphA7(h) (human)): 193% | % activity (EphA8(h) (human)): 181% | % activity (ErbB4(h) (human)): 73% | % activity (FGFR1(h) (human)): 120% | % activity (FGFR3(h) (human)): 73% | % activity (Flt1(h) (human)): 109% | % activity (Flt3(h) (human)): 104% | % activity (HIPK1(h) (human)): 94% | % activity (HIPK2(h) (human)): 98% | % activity (HIPK3(h) (human)): 105% | % activity (Hck(h) activated (human)): 58% | % activity (IKKα(h) (human)): 108% | % activity (IKKβ(h) (human)): 105% | % activity (Lck(h) (human)): 346% | % activity (MINK(h) (human)): 96% | % activity (MLK1(h) (human)): 77% | % activity (MST2(h) (human)): 98% | % activity (Mer(h) (human)): 47% | % activity (Met(h) (human)): 104% | % activity (Mnk2(h) (human)): 94% | % activity (NEK2(h) (human)): 102% | % activity (NLK(h) (human)): 100% | % activity (PAK5(h) (human)): 97% | % activity (PAR-1Bα(h) (human)): 62% | % activity (PDGFRα(D842V)(h) (human)): 103% | % activity (PDK1(h) (human)): 144% | % activity (PKG1β(h) (human)): 71% | % activity (Pim-1(h) (human)): 44% | % activity (Ron(h) (human)): 117% | % activity (Ros(h) (human)): 107% | % activity (Rsk1(h) (human)): 86% | % activity (Rsk4(h) (human)): 99% | % activity (STK33(h) (human)): 99% | % activity (Src(1-530)(h) (human)): 95% | % activity (Src(T341M)(h) (human)): 98% | % activity (TAO1(h) (human)): 99% | % activity (cKit(D816H)(h) (human)): 79% | % activity (cKit(V654A)(h) (human)): 69% | % activity (cKit(h) (human)): 95% | % activity (mTOR/FKBP12(h) (human)): 117%
